Our source for the Kd and stoichiometry N values is PMC10643122.

In experiment [1] the target is full-length LRRK1 (Leucine Rich Repeat Kinase 1) (human) (UniProt Q38SD2). Kind of experiment: mass photometry; full-length LRRK1 diluted to 100 nM in 20 mM HEPES pH 7.4, 150 mM NaCl, 2.5 mM MgCl2, 1 mM GDP, 0.5 mM TCEP, 0.5% glycerol; 30 min at room temperature; Refeyn TwoMP; Gaussian fits of the histograms, law of mass action; dimer to monomers; estimated Kd.
The target is the same in experiment [2]. Description: cryo-EM structure; 5.2 μM LRRK1(FL) with GDP, 0.06% brij-35 added directly before vitrification; C2 symmetry.

Broadly, the Kd is the constant that tells how readily two partners part at equilibrium. One may read the stoichiometry N as the number of molecules, sites or subunits per partner or assembly.

In the case of “full-length LRRK1 (Leucine Rich Repeat Kinase 1), Q38SD2-1 1-2015”, the Kd in experiment [1] is 600 nM. In addition, the stoichiometry N in experiment [2] came out at 2.
